Reference: paper PMC13078889
pIC50, pKd: −log10 of the molar value.

What was measured:
LARP6 [1] = test: ITC; settings: not in the material
LARP6 [2] = test: TR-FRET competition; settings: vs DIG-labeled A1 RNA; not in the material

Substance	pKd (LARP6 [1]; only stated as higher Kd than COL1A1-TIS, value in Table 2 not in material)	pIC50 (LARP6 [2])	pKd (LARP6 [1])
COL1A1-5'SL (A1), ITC	< 6.40		
COL1A1-TIS		8.57	6.40
A1 RNA (COL1A1 5'SL, 48 nt)		8.16	
